These are literature values, as cited in patent publication US12539328B2, “Oral vaccine via dental bacteria and emitted peptides to prevent COVID-19 infection” (priority 2021, dated 2026).

In general, IC50 refers to the concentration at which inhibition is half-maximal.

The subject of the data set is SARS-CoV-2 infection of Vero E6 cells. The settings on record: first approach, built around an ACE2 helix; read-out: IC50 of SARS-CoV-2 neutralization.

B1: AHB2 (protein)
chain: ELEEQVMHVLDQVSELAHELLHKLTGEELERAAYFNWWATEMMLELIKSDDEREIREIEEEARRILEHLEELARK
Take B1: the half-inhibitory concentration (IC50) was 15.5 nM.

B2: AHB1 (protein)
chain: DEDLEELERLYRKAEEVAKEAKDASRRGDDERAKEQMERAMRLDQVFELAQELQEKQTDGNRQKATHLDKAVKEAADELYQRVR
Regarding B2, the IC50 was 35 nM.
